Assay results reported in paper PMC7438327 (Cell Death & Disease, 2020).

T1: oligomycin sensitivity-conferring protein (OSCP) tagged with Clover GFP (UniProt P48047 24-213)
T1 construct: OSCP subunit of the mitochondrial ATP synthase; One vector carries OSCP-Clover and, downstream of an IRES, CypD-Scarlet; also called OSCP-Clover; OSCP subunit of the ATP synthase; source: HEK cells, transfected, in cells
T1 sequence (looked up): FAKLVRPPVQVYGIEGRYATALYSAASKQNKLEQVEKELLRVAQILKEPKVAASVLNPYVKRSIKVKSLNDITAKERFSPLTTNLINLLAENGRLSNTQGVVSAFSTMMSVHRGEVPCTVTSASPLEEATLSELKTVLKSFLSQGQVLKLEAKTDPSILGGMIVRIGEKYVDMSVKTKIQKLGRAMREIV

T2: oligomycin sensitivity-conferring protein (OSCP), endogenous in HEK cells (human (endogenous in HEK), UniProt P48047 24-213)
T2 construct: OSCP subunit of the mitochondrial ATP synthase, immunoprecipitated or stained in HEK cell lines; also called OSCP subunit of the ATP synthase; source: endogenous, HEK CypD mutant cell lines
T2 sequence (looked up): T1 sequence (looked up)

B1: cyclophilin D (CypD) WT tagged with Scarlet (natural protein)
chain: not shown
notes: also called PPIF; source: HEK cells, transfected, in cells
B2: cyclophilin D (CypD) phosphoresistant S191A mutant tagged with Scarlet (natural protein)
chain: not shown
notes: source: HEK cells, transfected, in cells
B3: cyclophilin D (CypD) phosphomimetic S191E mutant tagged with Scarlet (natural protein)
chain: not shown
notes: also called phosphomimetic mutant S191E; source: HEK cells, transfected, in cells
B4: cyclophilin D (CypD) WT, rescued in HEK CypD-KO cells (natural protein)
chain: not shown
notes: also called WT group; source: HEK CypD-KO cells (CRISPR/Cas9) rescued with WT CypD, in cells or lysate
B5: cyclophilin D (CypD) phosphoresistant S191A mutant, rescued in HEK CypD-KO cells (natural protein)
chain: not shown
notes: also called phosphoresistant S191A group; source: HEK CypD-KO cells (CRISPR/Cas9) rescued with mutated CypD, in cells or lysate
B6: cyclophilin D (CypD) phosphomimetic S191E mutant, rescued in HEK CypD-KO cells (natural protein)
chain: not shown
notes: also called phosphomimetic S191E group; source: HEK CypD-KO cells (CRISPR/Cas9) rescued with mutated CypD, in cells or lysate

The binders below were run against T1, oligomycin sensitivity-conferring … (assay: FRET or BRET; HEK cells transfected with OSCP-Clover and WT or mutant CypD-Scarlet downstream of an IRES; excitation 458 nm, emission 505-540 nm and 575-620 nm; FRET ratio). Conditions: partners not purified.

Binder | FRET ratio
B1 | 1.92
B2 | 1.29
B3 | 2.44

What follows are binders tested against T2, oligomycin sensitivity-conferring … (assay: co-IP; OSCP immunoprecipitation in HEK CypD mutant cell lines, immunoblots of CypD and OSCP; quantified as fold vs. WT). Conditions: partners not purified.

Binder | CypD co-immunoprecipitated with OSCP, fold vs. WT
B4 | 1 fold vs. WT
B5 | 0.65 fold vs. WT
B6 | 1.48 fold vs. WT
